From patent US20070078092A1 (CUREGENICS, published 2007)
Numbered stars: 1 amine (or outer) side, 2 acyl side, 3 side chain; on linkers, the order of the positions; unused ones are H or OH. Square brackets hold non-standard residues; d marks the D form. Ends that are not written are not given here. * marks the point of attachment. Cholesteryloxycarbonyl = CC(C)CCC[C@@H](C)[C@H]1CC[C@H]2[C@@H]3CC=C4C[C@@H](OC(=O)*)CC[C@]4(C)[C@H]3CC[C@]12C; Lithocholoyl = C[C@H](CCC(=O)*)[C@H]1CC[C@H]2[C@@H]3CC[C@@H]4C[C@H](O)CC[C@]4(C)[C@H]3CC[C@]12C; FITC = O=C1OC2(c3ccc(O)cc3Oc3cc(O)ccc32)c2ccc(NC(=S)*)cc21; Ser(Me) = COC[C@H](N[*:1])C(=O)[*:2]; hLeu = CC(C)CC[C@H](N)C(=O)O; VitB6 = vitamin B6 moiety; Orn = NCCC[C@H](N)C(=O)O; Nva = CCC[C@H](N)C(=O)O; Dap = NC[C@H](N)C(=O)O

target: protein kinase B (PKB); assay: cell-based or functional assay

Row | IC50, in vitro kinase assay PKB | Binder
1 | 500 nM | Cholesteryloxycarbonyl-[dK][dK][dK]RPR[Nva]Y[Dap][hLeu]K(FITC)-NH2 (SMILES CCC[C@H](NC(=O)[C@H](CCCNC(=N)N)NC(=O)[C@@H]1CCCN1C(=O)[C@H](CCCNC(=N)N)NC(=O)[C@@H](CCCCN)NC(=O)[C@@H](CCCCN)NC(=O)[C@@H](CCCCN)NC(=O)O[C@H]1CC[C@@]2(C)C(=CC[C@H]3[C@@H]4CC[C@H]([C@H](C)CCCC(C)C)[C@@]4(C)CC[C@@H]32)C1)C(=O)N[C@@H](Cc1ccc(O)cc1)C(=O)N[C@@H](CN)C(=O)N[C@@H](CCC(C)C)C(=O)N[C@@H](CCCCNC(=S)Nc1ccc2c(c1)C(=O)OC21c2ccc(O)cc2Oc2cc(O)ccc21)C(N)=O) [PTR 6402]
2 | 10000 nM | {HO‑CO‑(CH2)2‑CO}-[dK][dK][dK]RPR[Nva]Y[Dap][hLeu]-NH2 [PTR 6394]
3 | 2000 nM | Cholesteryloxycarbonyl-RPR[Nva]Y[Dap]-OH (SMILES CCC[C@H](NC(=O)[C@H](CCCNC(=N)N)NC(=O)[C@@H]1CCCN1C(=O)[C@H](CCCNC(=N)N)NC(=O)O[C@H]1CC[C@@]2(C)C(=CC[C@H]3[C@@H]4CC[C@H]([C@H](C)CCCC(C)C)[C@@]4(C)CC[C@@H]32)C1)C(=O)N[C@@H](Cc1ccc(O)cc1)C(=O)N[C@@H](CN)C(=O)O) [PTR 6390]
4 | 2000 nM | Cholesteryloxycarbonyl-[Orn]P[Orn][Nva]Y[Dap][hLeu]-NH2 (SMILES CCC[C@H](NC(=O)[C@H](CCCN)NC(=O)[C@@H]1CCCN1C(=O)[C@H](CCCN)NC(=O)O[C@H]1CC[C@@]2(C)C(=CC[C@H]3[C@@H]4CC[C@H]([C@H](C)CCCC(C)C)[C@@]4(C)CC[C@@H]32)C1)C(=O)N[C@@H](Cc1ccc(O)cc1)C(=O)N[C@@H](CN)C(=O)N[C@@H](CCC(C)C)C(N)=O) [PTR 6386]
5 | 300 nM | Cholesteryloxycarbonyl-[dK][dK][dK][Orn]PR[Nva]Y[Dap][hLeu]-NH2 (SMILES CCC[C@H](NC(=O)[C@H](CCCNC(=N)N)NC(=O)[C@@H]1CCCN1C(=O)[C@H](CCCN)NC(=O)[C@@H](CCCCN)NC(=O)[C@@H](CCCCN)NC(=O)[C@@H](CCCCN)NC(=O)O[C@H]1CC[C@@]2(C)C(=CC[C@H]3[C@@H]4CC[C@H]([C@H](C)CCCC(C)C)[C@@]4(C)CC[C@@H]32)C1)C(=O)N[C@@H](Cc1ccc(O)cc1)C(=O)N[C@@H](CN)C(=O)N[C@@H](CCC(C)C)C(N)=O) [PTR 6398]
6 | 2000 nM | Cholesteryloxycarbonyl-RP[Orn][Nva]Y[Dap][hLeu]-NH2 (SMILES CCC[C@H](NC(=O)[C@H](CCCN)NC(=O)[C@@H]1CCCN1C(=O)[C@H](CCCNC(=N)N)NC(=O)O[C@H]1CC[C@@]2(C)C(=CC[C@H]3[C@@H]4CC[C@H]([C@H](C)CCCC(C)C)[C@@]4(C)CC[C@@H]32)C1)C(=O)N[C@@H](Cc1ccc(O)cc1)C(=O)N[C@@H](CN)C(=O)N[C@@H](CCC(C)C)C(N)=O) [PTR 6388]
7 | 5000 nM | {Coumarin‑3‑oyl}-RPR[Nva]Y[Dap][hLeu]-NH2 [PTR 6392]
8 | 300 nM | Cholesteryloxycarbonyl-[dK][dK][dK]KPR[Nva]Y[Dap][hLeu]-NH2 (SMILES CCC[C@H](NC(=O)[C@H](CCCNC(=N)N)NC(=O)[C@@H]1CCCN1C(=O)[C@H](CCCCN)NC(=O)[C@@H](CCCCN)NC(=O)[C@@H](CCCCN)NC(=O)[C@@H](CCCCN)NC(=O)O[C@H]1CC[C@@]2(C)C(=CC[C@H]3[C@@H]4CC[C@H]([C@H](C)CCCC(C)C)[C@@]4(C)CC[C@@H]32)C1)C(=O)N[C@@H](Cc1ccc(O)cc1)C(=O)N[C@@H](CN)C(=O)N[C@@H](CCC(C)C)C(N)=O) [PTR 6400]
9 | 200 nM | {Vitamin E‑CO‑(CH2)2‑CO}-[dK][dK][dK]RPR[Nva]Y[Dap][hLeu]-NH2 [PTR 6396]

Continued, binder first:

Row | Binder | IC50, in vitro kinase assay PKB
10 | Cholesteryloxycarbonyl-[dK][dK][dK]RPR[Nva]Y[Ser(Me)][hLeu]-NH2 (SMILES CCC[C@H](NC(=O)[C@H](CCCNC(=N)N)NC(=O)[C@@H]1CCCN1C(=O)[C@H](CCCNC(=N)N)NC(=O)[C@@H](CCCCN)NC(=O)[C@@H](CCCCN)NC(=O)[C@@H](CCCCN)NC(=O)O[C@H]1CC[C@@]2(C)C(=CC[C@H]3[C@@H]4CC[C@H]([C@H](C)CCCC(C)C)[C@@]4(C)CC[C@@H]32)C1)C(=O)N[C@@H](Cc1ccc(O)cc1)C(=O)N[C@@H](COC)C(=O)N[C@@H](CCC(C)C)C(N)=O) [PTR 6348] | 200 nM
11 | H-[Orn]P[Orn][Nva]Y[Dap][hLeu]-NH2 (SMILES CCC[C@H](NC(=O)[C@H](CCCN)NC(=O)[C@@H]1CCCN1C(=O)[C@@H](N)CCCN)C(=O)N[C@@H](Cc1ccc(O)cc1)C(=O)N[C@@H](CN)C(=O)N[C@@H](CCC(C)C)C(N)=O) [PTR 6384] | > 10000 nM
12 | H-RPH[Nva]Y[Dap][hLeu]-NH2 (SMILES CCC[C@H](NC(=O)[C@H](Cc1c[nH]cn1)NC(=O)[C@@H]1CCCN1C(=O)[C@@H](N)CCCNC(=N)N)C(=O)N[C@@H](Cc1ccc(O)cc1)C(=O)N[C@@H](CN)C(=O)N[C@@H](CCC(C)C)C(N)=O) [PTR 6368] | > 10000 nM
13 | Cholesteryloxycarbonyl-[Orn]PR[Nva]Y[Dap][hLeu]-NH2 (SMILES CCC[C@H](NC(=O)[C@H](CCCNC(=N)N)NC(=O)[C@@H]1CCCN1C(=O)[C@H](CCCN)NC(=O)O[C@H]1CC[C@@]2(C)C(=CC[C@H]3[C@@H]4CC[C@H]([C@H](C)CCCC(C)C)[C@@]4(C)CC[C@@H]32)C1)C(=O)N[C@@H](Cc1ccc(O)cc1)C(=O)N[C@@H](CN)C(=O)N[C@@H](CCC(C)C)C(N)=O) [PTR 6382] | 360 nM
14 | XPRXYXX (Nva, Dap, Hol; C-terminal NH2) [PTR 6366] | > 10000 nM
15 | Cholesteryloxycarbonyl-RPH[Nva]Y[Dap][hLeu]-NH2 (SMILES CCC[C@H](NC(=O)[C@H](Cc1c[nH]cn1)NC(=O)[C@@H]1CCCN1C(=O)[C@H](CCCNC(=N)N)NC(=O)O[C@H]1CC[C@@]2(C)C(=CC[C@H]3[C@@H]4CC[C@H]([C@H](C)CCCC(C)C)[C@@]4(C)CC[C@@H]32)C1)C(=O)N[C@@H](Cc1ccc(O)cc1)C(=O)N[C@@H](CN)C(=O)N[C@@H](CCC(C)C)C(N)=O) [PTR 6376] | 2000 nM
16 | XPRXYXX (N-terminal Cholesteryl-O-CO-; Nva, Dap, Hol; C-terminal NH2) [PTR 6374] | 1400 nM
17 | XPHXYXX (Nva, Dap, Hol; C-terminal NH2) [PTR 6370] | > 10000 nM
18 | {Cholesteryl‑O‑CO‑(CH2)2‑CO}-[dK][dK][dK]RPR[Nva]Y[Dap][hLeu]-NH2 [PTR 6356] | 170 nM
19 | H-[Orn]PR[Nva]Y[Dap][hLeu]-NH2 (SMILES CCC[C@H](NC(=O)[C@H](CCCNC(=N)N)NC(=O)[C@@H]1CCCN1C(=O)[C@@H](N)CCCN)C(=O)N[C@@H](Cc1ccc(O)cc1)C(=O)N[C@@H](CN)C(=O)N[C@@H](CCC(C)C)C(N)=O) [PTR 6380] | > 10000 nM
20 | H-RP[Orn][Nva]Y[Dap][hLeu]-NH2 (SMILES CCC[C@H](NC(=O)[C@H](CCCN)NC(=O)[C@@H]1CCCN1C(=O)[C@@H](N)CCCNC(=N)N)C(=O)N[C@@H](Cc1ccc(O)cc1)C(=O)N[C@@H](CN)C(=O)N[C@@H](CCC(C)C)C(N)=O) [PTR 6372] | > 10000 nM
21 | Cholesteryloxycarbonyl-KKKRPR[Nva]Y[Dap][hLeu]-OH (SMILES CCC[C@H](NC(=O)[C@H](CCCNC(=N)N)NC(=O)[C@@H]1CCCN1C(=O)[C@H](CCCNC(=N)N)NC(=O)[C@H](CCCCN)NC(=O)[C@H](CCCCN)NC(=O)[C@H](CCCCN)NC(=O)O[C@H]1CC[C@@]2(C)C(=CC[C@H]3[C@@H]4CC[C@H]([C@H](C)CCCC(C)C)[C@@]4(C)CC[C@@H]32)C1)C(=O)N[C@@H](Cc1ccc(O)cc1)C(=O)N[C@@H](CN)C(=O)N[C@@H](CCC(C)C)C(=O)O) [PTR 6352] | 200 nM

target: protein kinase B (PKB); assay: cell-based or functional assay; remark: another data set of the same source

Row | IC50, kinase assay PKB | Binder
22 | 1000 nM | VitB6-RPR[Nva]Y[Dap][hLeu] [PTR 6232]
23 | 2000 nM | Lithocholoyl-RPR[Nva]Y[Dap][hLeu]-NH2 [PTR 6220]
24 | 3000 nM | {Testosterone‑yl‑O‑CO}-RPR[Nva]YA[hLeu]-NH2 [PTR 6226]
25 | 7000 nM | {Testosterone‑yl‑O‑CO}-RPR[Nva]Y[Dap][hLeu]-NH2 [PTR 6212]
26 | 10000 nM | {Galactopyranosyl‑O‑CO}-RPR[Nva]Y[Dap][hLeu]-NH2 [PTR 6214]
27 | 2000 nM | VitB6-RPR[Nva]YA[hLeu]-NH2 [PTR 6228]
28 | 800 nM | Lithocholoyl-GRPR[Nva]Y[Dap][hLeu]-NH2 [PTR 6218]
